Molecular target: the molecule itself
Experiment: native gel or EMSA

B1: Ugo1 (natural protein)
chain: MNNNNVTEATSRAQIRPYYDPDSFNAGYSAVFKPDEGVVDPHGYTIASKLNVINSSPTTKRMANALFKSSPMKKLSNSVNDGLSLEGSNGEITGLNNFEWAELVNIQKWRKIFEQLLDMFFRKYFQLLIQQPFDVARLLIQVGEFKIFKTTVDTNKPQAPIILRDEEGDGAAREGEEDAYDEEEIDFFPIERKIAEANSTAPIMAEETDHSHHEPTDISLTIAPQSLHTIDVINALFDQEGIRGLWKANNTTFIYNFLSLSIDTWFTGLLSSFLGVPDPYFMEVINSPDISKSFILALGAGVFTSIILLPVDLIRTRLIVTSFKKKKNVKTDGKNMVTNTRSLRQLIRCWSWRKNGVSIPLDMWSLTILQSINNSFFNKLFDLVIYNQFHIEKYSQTVMYNTMKFFSKSLELFIKLPLENLLRRCQLNYLLNDQRLSFKVDSTELIVKPKKYNGIWDVIRNNSNTNRGQLWNGWKVGVISLICGYGLQMMNKVDINMEQEKF
- stoichiometry N: 2

Source: publication PMC2654124 (The Journal of Cell Biology, 2009)
